Test: yeast display, Sf9 membrane polyspecificity reagent, FACS + sequencing; frameworks hold sequencing errors
How it was run: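 Using colony PCR, genes from sorted yeast display clones were amplified, then sequenced on MiSeq at 2 × 250 and filtered by CDR length. The clones had been stained with 10% biotinylated, detergent-solubilized Sf9 membrane reagent for 1 hour at 4 °C and sorted by FACS into low and high (top ~1%) gates on anti-HA and streptavidin fluorescence. Polyreactivity labels come from the gate of origin.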
In the case of “QVQLVESGGGLVQAGGSLRLSCAASGRTFALYAMGSYRQAPGKERELVAGITFRGGSTYYADSVKGRFTISRDNAKNTVYLQMNSLKPEDTAVYYCAAVPRVNLSRYVYFWYDYWGQGTQVTVSS”, the “polyreactivity (PSR sort gate)” value is reported as “high polyreactivity”.
With “QVQLVESGGGLVQAGGSLRLSCAASGFIFVYNDMGWYRPAPGKERELVAAISTSGGSTYYADSVKGRFTISRDNAKNTVYLQMNSLKPEDTAVYYCAAGPSYYPFFWPDFEYWGQGTQVTVSS” the “polyreactivity (PSR sort gate)” value was “high polyreactivity”.
For “QVQLVESGGGLVQAGGSLRLSCAASGRIFTLYTMGWYRQAPGKERELVARITRSGGTTYYADSVKGRFTISRDNSKNTVYLQMNSLKPEDTAVYYCNVDDYFWPGAKFDYWGQGTQVTVSS”, the “polyreactivity (PSR sort gate)” value was “low polyreactivity”.
In the case of “QDQLVESVGSLVQAGGSHRLSCSASGFIIANNPMGWYRQAPGKERELVATITGGGSTDYADTVKRRFTISRDNAKNTVYLQMNSLKPEDTAVYYCAAEYKYWAFASPSLTTNDSWGQGTQVTVSS”, the “polyreactivity (PSR sort gate)” value is reported as “low polyreactivity”.
For “QVQLQESGGGLVQAGGSLRQSCAASGSISATDSVGWYRQAPGKEREFVATIDGGANTNYADSVKGRFTISRDNAKNTVYLQMNSLKPEDTAVYYCAKDSQTARDFDYWGQGTQVTVSS”, the “polyreactivity (PSR sort gate)” value was “low polyreactivity”.
For “QVKLLESGGGLVQAGGSLRLTCAASGFIFRRYTMGWYRHAPGEEREWVAAISITGSRTYYADSVKGRFTISPDNAKNNVYLQMNSLKPEDTAVYYCAADPDKSSAGDFDYWGHGTQVTVSS”, the “polyreactivity (PSR sort gate)” value was “high polyreactivity”.
In the case of “QVQLVESGGGLVQAGGSLRLSCAASGSTFGPNTMGWYRQAPGKERELVAAISRAGRTYYADSVKGRFTISRDNAKNTVYLQMNSLKPEDTAVYYCNAGRSYHWRAGGEYDYWGQGTQVTVSS”, the “polyreactivity (PSR sort gate)” value is reported as “low polyreactivity”.
With “QVQLVESGGGLVQAGGSLRLSCAASGSTFRINAMGWYRQAPGKERELVAAITRGGSTNYADSVKGRFTISRDNAKNTVYLQMNSLKPEDTAVYYCAAGLYSWSGYASYNSAYGYWGQGTQVTVSS” the “polyreactivity (PSR sort gate)” value was “low polyreactivity”.
For “QVQLVESGGGLVQAGGSLRLSCAASGRIFGKYAMGWYRQAPGKERELVATISLSGVRTYYADSVKGRFTISRDNAKNTVYLQMNSLKPEDTAVYYCASCYSSNGDYWGQGTQVTVSS”, the “polyreactivity (PSR sort gate)” value was “low polyreactivity”.
With “QVQLVESGGGLVQAGGSLRLSCAASGRISSGYAMGWYRKAPGKERELVAAISSIGGRTYYADSVKGRFTISRDNANNTVYLQMNSLKPEDTAVYYCNAGTYRRIGGYDYWGQGTQVTVSS” the “polyreactivity (PSR sort gate)” value was “high polyreactivity”.
With “QVLLVESGGGLVQAGGSLRLSCAASGAIFRGYVMGWYSQAPGKERELVAAISYSGGATYYADSVKGRFTLSRDNAKNTVYVQMNSLKPEDTAVYYCAAYRYRYPYRLYDYWGQGTQGTVSS” the “polyreactivity (PSR sort gate)” value was “high polyreactivity”.
For “QVQLLESGGGLVQAGGSLSLSCMASGSILGDRMSWYRQAPGKEHELVATIYDGGITYYADSMKGRFTISRDNAKNTVYLQMNSLRPEDTAVYYCGASFEGYRYHVYCGQGTQVTVSS”, the “polyreactivity (PSR sort gate)” value was “low polyreactivity”.
For “QVQLGESGGGLVQAGGSLRLSCAASGSIFKVNVMGWYRQEPGKERELVAAISRSGGNTYYADYVKGRFTISRDNAKNTVYLKMNSLKPEDTAVYYCAKDRRYYKAYDYWGQGTQVTVSS”, the “polyreactivity (PSR sort gate)” value was “low polyreactivity”.
With “QVQLVESGGGLVQAGGSLRLSCAASGRTIRYYAMGWYRQAPGKERELVAAITSGGSTYYADSVKGRFTISRDNAKNTVYLQMNSLKPEDTAVYYCAAARYEPFIYDYGYWGQGTQVTVSS” the “polyreactivity (PSR sort gate)” value was “low polyreactivity”.
For “QVQLVESGGGLVHAGGSLRLSCAASGKIFGLYAMGWYRKAPGKERELVAAISYRTDSTYADSVKGRFTISRDNAKNTVYLQMNSLKPEDTAVYYCAADLRVSVRYYYWGQGTQVTVSS”, the “polyreactivity (PSR sort gate)” value was “low polyreactivity”.
For “QVQLVESGGGVVQAGGSLRLSCAASGINFGRNTMGWYRQAPGKERELVAAIDSGGNTYADSVKGRFTISRDNAKNTVYLQMNSLKPEDTAVYYCAVDGGEFSSYGYWGQGTQVTVSS”, the “polyreactivity (PSR sort gate)” value was “low polyreactivity”.
In the case of “QVQLVESGGGLVQAGGRLRISCAASGRTFGHYAMGWYRQAPGKQRELVAAINRSGGITYYADSVRGRFTISRDNAKNTVYLQMNSLKPEDPAVDYCAAASPGRYDYWGQGTQETVSS”, the “polyreactivity (PSR sort gate)” value is reported as “high polyreactivity”.
In the case of “QVQLVESGGGLVQAGGSLRLSCAASGFTFSLYAMGWYRQAPGKERELVASIDSDGVSTYYADSVKGRFTISRDNAKNTVYLQMNSLKPEDTAVYYCAADLWWGYISGPVRGRGYYWGQGTQVTVSS”, the “polyreactivity (PSR sort gate)” value is reported as “low polyreactivity”.
For “QVQLVESGGGLVQAGGSLRLSCAASGSTFGSYAMGWYRQAPGKEREFVATINTSNDRTYYADSVKGRFTISRDKAKNTVYLQMNSLKPEDTAVYYSNVLVYNVHTRGYWGQGTQVTVSS”, the “polyreactivity (PSR sort gate)” value was “high polyreactivity”.
For “QVQLVESGGGLVQAGGSLRLSCAASGSTYRYVMGWYRQAPGKERELVAAITYTGGSTYYADSVKGRFTISRDNAKNTVYLQMNSLKPEDTAVYYCAASRYYTFDYWGQGTQVTVSS”, the “polyreactivity (PSR sort gate)” value was “high polyreactivity”.
For “QVQLVESGGGLVQAGGSLRLSCAASGITFRFYAMGWYRPAPGKEREFVAAISSRGGRTYYADSVKGRFTISRDNATNTVYLQMNSLKPEDTAVYYCAADFYYRTVATVTSVARYDYWGQGTQVTVSS”, the “polyreactivity (PSR sort gate)” value was “high polyreactivity”.
With “QVQLVESGGGLVQEGCSLRLSCAPSGIIFGVNAMGLYRQAPAKERELVAVITWSGGSTYYADSVKGRFTISRDNAKNTVYLQMNSLKPEDTAVYYCNADSSASTIDRQGEYYYLGQGTQVTVSS” the “polyreactivity (PSR sort gate)” value was “low polyreactivity”.
For “QVQLVESGGGLVQAGGSLRLSCAASGLTFNYYDRGWYRQAPGKERELVAAISRSRTNTSYADSVKGRFTISRDNAKNTVYLQMNSLKPEDTAVYYCNAAGVYLAAGPYTANFNYNYWGQGTQVTVSS”, the “polyreactivity (PSR sort gate)” value was “low polyreactivity”.
With “QVQLVESGGGLVQAGGSLRLSCAASVFTFKINGMGWYRQAPGKEREFVATIRTSTGRTYYADSVKGRFTISRDNAKNTVYLQMNSLKPEDTAVYYCDTRVRQGNTHPNGKSDDYWGQGTQVTVSS” the “polyreactivity (PSR sort gate)” value was “high polyreactivity”.
In the case of “QVQLEESRGGVVQAGGSLRLSCAASGSIITVYALGWERQAPGQERELVAGISRGGGTYYADSVTGRFTISRDNAKNCVYLQMNSLKPEDTAVYYCAAQIELWPYGIYQSGMYYWGQGTQVTVSS”, the “polyreactivity (PSR sort gate)” value is reported as “low polyreactivity”.
For “QVQLVESGGGLVQAGGSLRLSCAASGRTFSANTMGRYRQAPGKERELVAAITRGASTKYADSVKGRFTISRDNAKNTVYLPMNSLNPDDTAVYYCAAAVAYEYLQYAYTRYYYWGQGTQVTVSS”, the “polyreactivity (PSR sort gate)” value was “high polyreactivity”.
For “QVQLVESGGGLVQAGGSLRLSCAASGITFDQNAMGWYRQAPGKEREFVAAISVSGGRTYYADSVKGRFTISRDNAKNTVYLQMNSLKPEDTAVYYCAAYGGTRYYYSYYYWGQGTQVTVSS”, the “polyreactivity (PSR sort gate)” value was “high polyreactivity”.
With “QVQLVESGGGLVQAGGSLRLSCAASGRIFTWNAMGWYRQAPGKERELVASISRSGTSTYYADSVKGRFTISRDNAKNSVYLQMNSLKAEDTAVYYCAAKRYGYKMYYWGQGTQVTVSS” the “polyreactivity (PSR sort gate)” value was “high polyreactivity”.
In the case of “QVQHVDSAGGIVQAGGILRLSCAASGPTFGKYAMGWYRQQHGKERELVATITRTARTNYADSVKGRFTSSRDNAKNTVYLQMNSRKPEDTAVYYCDAPWRYTFPPQVYGQSYGYWGQGTQVTVSS”, the “polyreactivity (PSR sort gate)” value is reported as “high polyreactivity”.
For “QVQLVESGGGLVQAGGSLRLSCAASGRNFRYNAMGWYRQAPGKERELVAAISSGDRTNYADSVKGRFTISRDNAKNTVYLQKKSLKPVDTAVYYCAAPTDSYYEFDYWGQGTQGTVSS”, the “polyreactivity (PSR sort gate)” value was “low polyreactivity”.
For “QVQLVESGGGLVQAGGSLRLSCAASGRIFYLNVMGWYRQAPGKERELVAAITRRDVTTYADSVKGRFTISRDNAKNTVYLQMKSLKPEDTAFYYCNAVYYNWIGFDYWGQGTQVTVSS”, the “polyreactivity (PSR sort gate)” value was “low polyreactivity”.
In the case of “QVQLVESGGGLVQAGGSLRLSCAASGFIFPHNTMGWYRQAPGKERELVAAISSGGSTNYADSVKGRFTISRDNAKNTVYLQMNSLKPEDTAVYYCNKRVRYHSGFGYWGQGTQVTVSS”, the “polyreactivity (PSR sort gate)” value is reported as “low polyreactivity”.
With “QVQLVESGGGLVQAGGSLRLSCAASGSTFRYYAMGWYRQAPGKERELVAAISRSGGRTYYADSVKGRFTISRDNAKNTAYLQMNRLKPEDTAVYYCAVVVWWFTGCLGPYDYWGKGTQVTVSS” the “polyreactivity (PSR sort gate)” value was “high polyreactivity”.
In the case of “QVQLVESGGGLVQAGGSLRLRCAASGRTLGRYAMGWYRQAPGKDRELVAAIRIGGGSTYYADSVKGRFTISRDNAKNTVYLQMISLKPEDTAVYYCATRGYINGAGFGYWGQGTQVTVSS”, the “polyreactivity (PSR sort gate)” value is reported as “high polyreactivity”.
In the case of “QVQLVESGVGLVQAGGSLRLSCAASGRIFTLNAMGWYRQAPGKERELFAGISRTGGSTYYADSVKVRFPISRDNAKNTVYLQMNSLKPEDTAVYYCAAAGFRRQPGAGAYYYWGQGTQVTVSS”, the “polyreactivity (PSR sort gate)” value is reported as “high polyreactivity”.
For “QDQLVESGGGLVQAGGSLRLSCAASGRILAYYAMGWSRQAPGKERELVAAISRAGSTNYADSVKGRFTISRDNAKNTVYLQMNSLKPEDTAVYYCAARPYRRGYNYWGQGTQVTVSS”, the “polyreactivity (PSR sort gate)” value was “high polyreactivity”.
With “QVQLVESGGGLVQAGGSLRLSCAASGFIFAYNAMGWYRQAPGKEWELVAAISWSGGSTYYADSVKGRFTISRDNAKNTVYLQMNSLKPEDTAVYYCNKYLRYPFKRYGYWGQGTQVTVSS” the “polyreactivity (PSR sort gate)” value was “high polyreactivity”.
In the case of “QVQLVESGGGLVQAGGSLRLSCAASGRTFYGYAMGWYRQAPGKERELVAGITFRGSSTYYADSVKGRFTISRDNAKNTVYLQMNSLKPEDTAVYYCNVPYGNSHVGYDYWGQGTQVTVSS”, the “polyreactivity (PSR sort gate)” value is reported as “high polyreactivity”.
In the case of “QVQLVESGGGLVQAGGSLRFSCAASGFIFSNYAMGWYRQAPGKERELVAAITSGGSTNYADSVKGRFTISRDNAKNTVYLQMNSLKPEDTAVYYCAAERGDTAYRKYDYWGQGTQVTVSS”, the “polyreactivity (PSR sort gate)” value is reported as “low polyreactivity”.
In the case of “QVQLVESGGGLVQAGGSLRLSCAASGFTFYVYARGWYRQAPGKERQLVAAISRSGGSTYYADSVKGSFTISRDNAKNTVYLQMQSLKPEDTAVYYCAVVQRYWYPGIVPYDYWGQGSQVTVSS”, the “polyreactivity (PSR sort gate)” value is reported as “high polyreactivity”.

Reference: the nanobody polyreactivity screen of Harvey et al. (2022)
